Assay results as given in IntAct's records for PubMed 34927784.

B1: Endosomal transmembrane epsin interactor 1 (Homo sapiens), Q15884 (parent)
chain: MILLVNLFVLLSVVCVLLNLAGFILGCQGAQFVSSVPRCDLVDLGEGKICFCCEEFQPAKCTDKENALKLFPVQPCSAVHLLLKKVLFALCALNALTTTVCLVAAALRYLQIFATRRSCIDESQISAEEAEDHGRIPDPDDFVPPVPPPSYFATFYSCTPRMNRRMVGPDVIPLPHIYGARIKGVEVFCPLDPPPPYEAVVSQMDQEQGSSFQMSEGSEAAVIPLDLGCTQVTQDGDIPNIPAEENASTSTPSSTLVRPIRSRRALPPLRTRSKSDPVLHPSEERAAPVLSCEAATQTERRLDLAAVTLRRGLRSRASRCRPRSLIDYKSYMDTKLLVARFLEQSSCTMTPDIHELVENIKSVLKSDEEHMEEAITSASFLEQIMAPLQPSTSRAHKLPSRRQPGLLHLQSCGDLHTFTPAGRPRAERRPRRVEAERPHSLIGVIRETVL

Columns and labels:
ITCH, Q96J02-2 [1] = variants of: B1; settings: with ITCH
ITCH, Q96J02-2, sequence (Q96J02 other isoform, or with tags, fused parts or gaps): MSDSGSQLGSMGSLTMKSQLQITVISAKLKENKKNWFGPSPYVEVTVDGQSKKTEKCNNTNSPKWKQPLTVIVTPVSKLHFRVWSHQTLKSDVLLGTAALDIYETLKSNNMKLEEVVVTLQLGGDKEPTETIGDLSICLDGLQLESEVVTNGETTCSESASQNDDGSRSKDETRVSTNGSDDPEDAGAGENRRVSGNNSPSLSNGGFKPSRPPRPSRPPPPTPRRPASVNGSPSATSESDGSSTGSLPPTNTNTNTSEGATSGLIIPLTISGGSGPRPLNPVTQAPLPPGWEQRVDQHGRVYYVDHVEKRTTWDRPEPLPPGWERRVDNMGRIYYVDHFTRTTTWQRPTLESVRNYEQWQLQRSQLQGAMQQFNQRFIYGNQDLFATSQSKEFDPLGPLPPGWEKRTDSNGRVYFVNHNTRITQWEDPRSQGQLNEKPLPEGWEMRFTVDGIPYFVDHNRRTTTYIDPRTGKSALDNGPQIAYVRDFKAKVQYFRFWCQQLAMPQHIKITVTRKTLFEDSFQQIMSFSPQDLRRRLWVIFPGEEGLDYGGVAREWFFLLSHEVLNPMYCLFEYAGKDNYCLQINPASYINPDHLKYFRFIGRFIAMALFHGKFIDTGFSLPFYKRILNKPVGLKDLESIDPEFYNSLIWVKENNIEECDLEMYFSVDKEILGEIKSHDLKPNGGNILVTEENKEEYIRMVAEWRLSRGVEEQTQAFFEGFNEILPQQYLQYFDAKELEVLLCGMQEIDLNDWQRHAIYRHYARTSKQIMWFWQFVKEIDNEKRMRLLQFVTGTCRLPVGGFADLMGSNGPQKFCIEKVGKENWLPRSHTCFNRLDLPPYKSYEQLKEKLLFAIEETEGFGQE

epn1_human EPN1, Q9Y6I3 = variants of: B1; settings: with epn1_human EPN1, Q9Y6I3
epn1_human EPN1, Q9Y6I3, sequence (Q9Y6I3 whole entry): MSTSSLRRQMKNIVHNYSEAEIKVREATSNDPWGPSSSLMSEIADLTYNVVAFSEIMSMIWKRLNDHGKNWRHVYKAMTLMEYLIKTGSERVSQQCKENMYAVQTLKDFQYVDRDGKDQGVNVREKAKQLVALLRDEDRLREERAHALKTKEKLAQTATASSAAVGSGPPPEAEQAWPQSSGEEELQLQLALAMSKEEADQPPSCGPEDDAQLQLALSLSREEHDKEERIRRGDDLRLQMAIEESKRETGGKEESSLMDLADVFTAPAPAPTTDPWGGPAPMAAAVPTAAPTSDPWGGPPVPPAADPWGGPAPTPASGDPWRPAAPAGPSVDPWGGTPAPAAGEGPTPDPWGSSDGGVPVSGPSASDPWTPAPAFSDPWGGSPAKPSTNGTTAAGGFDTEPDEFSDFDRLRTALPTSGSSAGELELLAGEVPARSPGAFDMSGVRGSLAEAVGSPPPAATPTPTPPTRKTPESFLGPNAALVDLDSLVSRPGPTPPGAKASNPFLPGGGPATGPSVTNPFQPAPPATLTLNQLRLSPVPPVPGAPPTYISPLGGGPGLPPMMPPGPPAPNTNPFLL

ITCH, Q96J02-2 [2] = variants of: B1; settings: with ITCH; remark: listed apart in the source
ITCH, Q96J02-2 [3] = variants of: B1; settings: with ITCH; remark: listed apart in the source

| Variant | effect of a mutation on the interaction (ITCH, Q96J02-2 [1]) | effect of a mutation on the interaction (epn1_human EPN1, Q9Y6I3) | effect of a mutation on the interaction (ITCH, Q96J02-2 [2]) | effect of a mutation on the interaction (ITCH, Q96J02-2 [3]) |
| --- | --- | --- | --- | --- |
| Y151A | with no effect | – | – | – |
| Y197A | decreasing interaction strength | – | – | – |
| Y151A;Y197A | decreasing interaction strength | with no effect | with no effect | disrupting interaction strength |
